# B1: [PIN+] prion protein RNQ1 (Saccharomyces cerevisiae), P25367 (parent)
# chain: MDTDKLISEAESHFSQGNHAEAVAKLTSAAQSNPNDEQMSTIESLIQKIAGYVMDNRSGGSDASQDRAAGGGSSFMNTLMADSKGSSQTQLGKLALLATVMTHSSNKGSSNRGFDVGTVMSMLSGSGGGSQSMGASGLAALASQFFKSGNNSQGQGQGQGQGQGQGQGQGQGSFTALASLASSFMNSNNNNQQGQNQSSGGSSFGALASMASSFMHSNNNQNSNNSQQGYNQSYQNGNQNSQGYNNQQYQGGNGGYQQQQGQSGGAFSSLASMAQSYLGGGQTQSNQQQYNQQGQNNQQQYQQQGQNYQHQQQGQQQQQGHSSSFSALASMASSYLGNNSNSNSSYGGQQQANEYGRPQQNGQQQSNEYGRPQYGGNQNSNGQHESFNFSGNFSQQNNNGNQNRY
# partner: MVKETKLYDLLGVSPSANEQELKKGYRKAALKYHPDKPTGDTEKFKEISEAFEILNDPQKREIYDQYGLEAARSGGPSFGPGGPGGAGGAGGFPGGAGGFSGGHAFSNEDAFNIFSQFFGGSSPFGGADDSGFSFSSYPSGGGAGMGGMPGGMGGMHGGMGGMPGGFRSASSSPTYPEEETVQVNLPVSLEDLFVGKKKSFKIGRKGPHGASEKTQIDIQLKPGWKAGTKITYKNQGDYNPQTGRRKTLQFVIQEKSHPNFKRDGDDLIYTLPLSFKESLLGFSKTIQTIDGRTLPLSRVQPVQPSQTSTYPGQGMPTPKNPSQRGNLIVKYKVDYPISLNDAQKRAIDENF
# Variants of: B1
# Details: with sis1_yeast SIS1, P25294
row,Variant,effect of a mutation on the interaction
1,L94A,decreasing interaction

# Source: IntAct's records for PubMed 18480252
